Consider one substance from patent US20130028925A1.

For this assay, the target named is HSV-2 glycoprotein E (gE2) as expressed by wild-type HSV-2 strain 2.12 (infected Cos cells; virion envelope) (Herpes Simplex Virus-2) (UniProt P89475). Description: rosetting of IgG-coated sheep red blood cells on Cos cells infected with HSV-2 at MOI 2, 12 h; uninfected cells and gE2-deletion virus formed none.
Chain of UniProt P89475 (P89475 21-545 limits assumed): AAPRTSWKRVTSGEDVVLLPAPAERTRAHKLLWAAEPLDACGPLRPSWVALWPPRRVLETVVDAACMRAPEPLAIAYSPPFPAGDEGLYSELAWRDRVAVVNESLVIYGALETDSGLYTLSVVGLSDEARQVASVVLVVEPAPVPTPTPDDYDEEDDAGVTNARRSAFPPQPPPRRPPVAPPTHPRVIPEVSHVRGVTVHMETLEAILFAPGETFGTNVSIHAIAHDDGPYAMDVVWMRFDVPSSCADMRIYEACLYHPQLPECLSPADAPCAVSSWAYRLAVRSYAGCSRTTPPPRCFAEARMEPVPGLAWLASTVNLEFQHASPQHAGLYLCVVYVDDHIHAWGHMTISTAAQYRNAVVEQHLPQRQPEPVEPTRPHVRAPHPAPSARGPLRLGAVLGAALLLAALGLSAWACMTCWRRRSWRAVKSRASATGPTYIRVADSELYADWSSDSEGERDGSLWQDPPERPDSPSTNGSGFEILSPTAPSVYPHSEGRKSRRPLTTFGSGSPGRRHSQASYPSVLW

Consider “rabbit anti-sheep IgG on sheep red blood cells (IgG-coated red blood cells) (antibody)”, for which the percent of infected cells forming rosettes worked out at 36%.
